{"source": "patent US20140363441A1", "about": "(priority 2013, published 2014)", "molecules": {"B1": {"name": "23K12 (TCN-031) (antibody, V domains shown)", "VH": "EVQLVESGGGLVQPGGSLRISCAASGFTVSSNYMSWVRQAPGKGLEWVSVIYSGGSTYYADSVKGRFSFSRDNSKNTVFLQMNSLRAEDTAVYYCARCLSRMRGYGLDVWGQGTTVTVS", "VL": "DIQMTQSPSSLSASVGDRVTITCRTSQSISSYLNWYQQKPGKAPKLLIYAASSLQSGVPSRFSGSGSGTDFTLTISGLQPEDFATYYCQQSYSMPAFGQGTKLEIK"}}, "key": {"[1]": {"target": "23 amino acid synthetic M2e peptide of A/Fort Worth/1/50 (influenza A virus H1N1 A/Fort Worth/1/50)", "test": "ELISA on 23mer M2e peptide coated at 1 µg/ml"}, "SEQ ID NO 273": {"target": "SEQ ID NO 273", "test": "peptide ELISA, mAb 5 µg/mL"}, "SEQ ID NO 307": {"target": "SEQ ID NO 307", "test": "peptide ELISA, mAb 5 µg/mL"}, "SEQ ID NO 308": {"target": "SEQ ID NO 308", "test": "peptide ELISA, mAb 5 µg/mL"}}}
{"molecule": "chimeric mouse V-region/human IgG1 kappa 14C2 antibody", "values": [{"measurement": "EC50", "setting": "[1]", "value": 0.01, "unit": "µg/mL"}]}
{"molecule": "B1", "values": [{"measurement": "ELISA A450", "setting": "SEQ ID NO 273", "value": 0.22}, {"measurement": "ELISA A450", "setting": "SEQ ID NO 307", "value": 0.58}, {"measurement": "ELISA A450", "setting": "SEQ ID NO 308", "value": 0.62}]}
